For two substances, fold affinity against the linearly linked hybrid chain (densitometry of the pull-down) and Kd results are on record in paper PMC8585875.

The target in assay [1] is H6-Rap80(1-137)-7A-Linker (human) (UniProt Q96RL1). The assay can be described thus: pull-down; H6-Rap80(1-137)-7A-Linker on Ni-NTA agarose; 3.5 µM hybrid chain in 50 µl; 50 mM TRIS pH 7.5, 150 mM NaCl, 2 mM TCEP, 0.1% NP-40; 1 h at 4 °C; Coomassie SDS-PAGE, densitometry normalised to Rap80.
Assay [2] deals with H6-Rap80(35-124)-S18C-C70S-C121S-7A-Linker, Atto488-labelled (human) (UniProt Q96RL1). The assay can be described thus: fluorescence polarisation; fluorescence anisotropy; hybrid chain titrated to 300 nM Atto488-labelled Rap80(35-124); 20 mM Tris pH 6.8, 100 mM NaCl, 4 mM DTT; single-site binding model. For orientation: In fluorescence polarisation assays a small probe gives low polarisation when free and higher when bound to something large.

In turn, “K63-diUb-K21-SUMO2 hybrid chain (Srt2A/Srt5M-generated) (from UniProt P0CG48 1-76; P0CG48 1-76; P61956 1-95) (complex)” showed a fold affinity against the linearly linked hybrid chain (densitometry of the pull-down) in assay [1] of 2 fold. One may read the Kd as the constant that tells how readily two partners part at equilibrium. A higher Kd goes with weaker binding. On to “linear diUb-SUMO2 hybrid chain, wt/LPT-linked (from UniProt P0CG48 1-76; P0CG48 1-76) (complex)”, for which, in assay [2], the Kd stood at 1.2 µM.
